Target: UltraID-δ opioid receptor fusion protein (UniProt P41143)
Test: proximity labelling; test selection on live Expi293F cells expressing UltraID-DOR; 0.1 nM DTK-DNA, 0.1 nM Met-Enk-RF-DNA, 100 nM non-ligand DNA, biotin 2 μM, ATP 50 μM, 30 minutes; lysis with 1% SDS, streptavidin beads, qPCR

| Substance | fold enrichment over non-ligand DNA |
| --- | --- |
| Dmt-Tic-Lys (DTK), DNA-linked (peptide) | 280 fold |
| Met-Enk-RF, DNA-linked (peptide) | 40 fold |

Source: paper PMC9811540
